Source: PMC9482650, “Quantitative fragmentomics allow affinity mapping of interactomes” (Nature Communications, 2022)

T1: PDZD7_3, Q9H5P4
T1 sequence (Q9H5P4 857-944, limits assumed, looked up): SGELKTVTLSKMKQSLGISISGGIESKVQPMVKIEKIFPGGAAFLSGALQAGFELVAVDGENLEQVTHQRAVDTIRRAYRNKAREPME

T2: RHPN1, Q8TCX5
T2 sequence (Q8TCX5 508-602, limits assumed, looked up): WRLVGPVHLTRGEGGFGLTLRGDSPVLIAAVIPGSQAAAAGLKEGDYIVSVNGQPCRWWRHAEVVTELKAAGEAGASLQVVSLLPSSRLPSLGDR

T3: DLG3_3, Q92796
T3 sequence (Q92796 374-475, limits assumed, looked up): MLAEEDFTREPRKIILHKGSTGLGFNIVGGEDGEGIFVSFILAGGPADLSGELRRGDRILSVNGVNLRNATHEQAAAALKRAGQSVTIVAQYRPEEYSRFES

T4: LNX2_2, Q8N448
T4 sequence (Q8N448 334-432, limits assumed, looked up): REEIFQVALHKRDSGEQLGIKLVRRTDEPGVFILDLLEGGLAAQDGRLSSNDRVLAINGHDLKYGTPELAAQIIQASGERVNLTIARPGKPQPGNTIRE

T5: RADIL, Q96JH8
T5 sequence (Q96JH8 971-1071, limits assumed, looked up): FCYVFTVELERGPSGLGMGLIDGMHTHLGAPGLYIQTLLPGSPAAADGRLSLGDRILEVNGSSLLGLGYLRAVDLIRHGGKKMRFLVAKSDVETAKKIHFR

T6: SNTG2, Q9NY99
T6 sequence (Q9NY99 68-166, limits assumed, looked up): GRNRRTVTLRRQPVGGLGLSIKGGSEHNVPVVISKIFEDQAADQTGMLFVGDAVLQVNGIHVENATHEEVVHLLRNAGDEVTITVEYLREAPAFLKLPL

T7: APBA1_1, Q02410
T7 sequence (Q02410 651-752, limits assumed, looked up): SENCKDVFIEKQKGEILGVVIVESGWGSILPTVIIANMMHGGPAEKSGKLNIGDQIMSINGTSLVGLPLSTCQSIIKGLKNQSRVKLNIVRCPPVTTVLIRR

T8: PDZRN3_1, Q9UPQ7
T8 sequence (Q9UPQ7 244-349, limits assumed, looked up): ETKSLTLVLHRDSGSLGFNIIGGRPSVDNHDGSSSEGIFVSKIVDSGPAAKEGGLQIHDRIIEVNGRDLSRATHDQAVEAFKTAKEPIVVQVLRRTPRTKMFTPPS


Assays:
Experiment in all cases: holdup assay
Parameters in all cases: key: below the threshold = too weak to quantify, mostly under pKd 3.1 to 4
Details in all cases: plain residues with an end cap or a label only (N-terminal biotin on a linker: ttds)
PDZD7_3, Q9H5P4 = biological target: T1, PDZD7_3, Q9H5P4
GRID2IP_1, A4D2P6 = biological target: GRID2IP_1, A4D2P6
Sequence of GRID2IP_1, A4D2P6 (A4D2P6 1-87): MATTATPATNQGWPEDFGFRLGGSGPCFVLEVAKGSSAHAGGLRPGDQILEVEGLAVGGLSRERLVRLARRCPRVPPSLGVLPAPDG

TJP2_1, Q9UDY2 = biological target: TJP2_1, Q9UDY2
Sequence of TJP2_1, Q9UDY2 (Q9UDY2 24-128): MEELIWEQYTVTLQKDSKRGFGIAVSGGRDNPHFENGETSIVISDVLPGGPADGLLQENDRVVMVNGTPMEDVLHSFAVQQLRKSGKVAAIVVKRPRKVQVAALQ

RHPN1, Q8TCX5 = biological target: T2, RHPN1, Q8TCX5
NHERF4_2, Q86UT5 = biological target: NHERF4_2, Q86UT5
Sequence of NHERF4_2, Q86UT5 (Q86UT5 220-308): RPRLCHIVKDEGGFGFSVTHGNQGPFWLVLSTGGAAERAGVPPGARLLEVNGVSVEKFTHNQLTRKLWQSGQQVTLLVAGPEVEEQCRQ

DLG3_3, Q92796 = biological target: T3, DLG3_3, Q92796
MAGI2_3, Q86UL8 = biological target: MAGI2_3, Q86UL8
Sequence of MAGI2_3, Q86UL8 (Q86UL8 600-682): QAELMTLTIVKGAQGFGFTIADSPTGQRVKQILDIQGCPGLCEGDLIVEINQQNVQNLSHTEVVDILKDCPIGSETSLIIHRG

GRID2IP_2, A4D2P6 = biological target: GRID2IP_2, A4D2P6
Sequence of GRID2IP_2, A4D2P6 (A4D2P6 272-370): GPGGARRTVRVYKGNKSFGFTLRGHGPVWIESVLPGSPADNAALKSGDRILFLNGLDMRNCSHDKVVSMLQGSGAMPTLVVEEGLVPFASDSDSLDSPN

CASK, O14936 = biological target: CASK, O14936
Sequence of CASK, O14936 (O14936 487-570): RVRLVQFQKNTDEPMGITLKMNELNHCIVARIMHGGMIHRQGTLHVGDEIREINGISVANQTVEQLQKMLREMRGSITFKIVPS

MAGI2_4, Q86UL8 = biological target: MAGI2_4, Q86UL8
Sequence of MAGI2_4, Q86UL8 (Q86UL8 772-865): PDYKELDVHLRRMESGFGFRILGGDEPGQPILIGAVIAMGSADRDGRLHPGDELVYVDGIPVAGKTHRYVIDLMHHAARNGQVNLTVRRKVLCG

MAST2, Q6P0Q8 = biological target: MAST2, Q6P0Q8
Sequence of MAST2, Q6P0Q8 (Q6P0Q8 1099-1202): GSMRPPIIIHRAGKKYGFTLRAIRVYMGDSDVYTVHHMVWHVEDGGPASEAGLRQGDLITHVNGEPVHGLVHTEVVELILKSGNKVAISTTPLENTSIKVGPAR

LNX1_3, Q8TBB1 = biological target: LNX1_3, Q8TBB1
Sequence of LNX1_3, Q8TBB1 (Q8TBB1 500-596): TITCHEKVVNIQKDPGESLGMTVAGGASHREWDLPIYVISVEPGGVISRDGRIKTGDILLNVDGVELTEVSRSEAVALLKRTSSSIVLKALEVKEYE

Inadl_9, Q8NI35 = biological target: Inadl_9, Q8NI35
Sequence of Inadl_9, Q8NI35 (Q8NI35 1530-1615): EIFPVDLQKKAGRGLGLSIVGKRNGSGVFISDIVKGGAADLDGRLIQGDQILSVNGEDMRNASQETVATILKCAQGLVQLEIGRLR

LNX2_2, Q8N448 = biological target: T4, LNX2_2, Q8N448
RADIL, Q96JH8 = biological target: T5, RADIL, Q96JH8
SNTG2, Q9NY99 = biological target: T6, SNTG2, Q9NY99
TJP1_2, Q07157 = biological target: TJP1_2, Q07157
Sequence of TJP1_2, Q07157 (Q07157 181-274): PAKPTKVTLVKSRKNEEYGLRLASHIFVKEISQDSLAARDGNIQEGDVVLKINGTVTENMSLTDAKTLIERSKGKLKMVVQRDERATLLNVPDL

PDZRN4_1, Q6ZMN7 = biological target: PDZRN4_1, Q6ZMN7
Sequence of PDZRN4_1, Q6ZMN7 (Q6ZMN7 213-318): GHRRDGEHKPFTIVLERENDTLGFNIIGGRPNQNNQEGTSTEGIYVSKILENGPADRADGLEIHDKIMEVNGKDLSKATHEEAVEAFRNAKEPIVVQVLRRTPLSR

APBA1_1, Q02410 = biological target: T7, APBA1_1, Q02410
FRMPD3, Q5JV73 = biological target: FRMPD3, Q5JV73
Sequence of FRMPD3, Q5JV73 (Q5JV73 12-100): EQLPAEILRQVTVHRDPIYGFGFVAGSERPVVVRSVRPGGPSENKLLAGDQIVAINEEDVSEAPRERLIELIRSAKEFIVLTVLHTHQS

GORASP2, Q9H8Y8 = biological target: GORASP2, Q9H8Y8
HTRA2, O43464 = biological target: HTRA2, O43464
Sequence of HTRA2, O43464 (O43464 355-458): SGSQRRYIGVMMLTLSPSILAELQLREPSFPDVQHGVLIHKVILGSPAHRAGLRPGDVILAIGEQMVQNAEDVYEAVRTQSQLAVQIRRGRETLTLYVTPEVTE

GOPC, Q9HD26 = biological target: GOPC, Q9HD26
MAST1, Q9Y2H9 = biological target: MAST1, Q9Y2H9
Sequence of MAST1, Q9Y2H9 (Q9Y2H9 962-1065): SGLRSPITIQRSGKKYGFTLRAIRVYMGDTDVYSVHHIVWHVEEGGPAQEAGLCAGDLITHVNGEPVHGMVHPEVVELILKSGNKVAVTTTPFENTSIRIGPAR

LNX1_2, Q8TBB1 = biological target: LNX1_2, Q8TBB1
Sequence of LNX1_2, Q8TBB1 (Q8TBB1 371-470): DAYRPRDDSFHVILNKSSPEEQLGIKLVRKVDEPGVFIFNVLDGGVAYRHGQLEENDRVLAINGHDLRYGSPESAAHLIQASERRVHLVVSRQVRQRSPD

PDZRN3_1, Q9UPQ7 = biological target: T8, PDZRN3_1, Q9UPQ7
LIMK2, P53671 = biological target: LIMK2, P53671
Sequence of LIMK2, P53671 (P53671 143-248): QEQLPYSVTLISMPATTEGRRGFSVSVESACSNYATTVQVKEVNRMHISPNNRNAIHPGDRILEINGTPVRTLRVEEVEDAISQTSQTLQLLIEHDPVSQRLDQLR

Inadl_3, Q8NI35 = biological target: Inadl_3, Q8NI35
Sequence of Inadl_3, Q8NI35 (Q8NI35 359-469): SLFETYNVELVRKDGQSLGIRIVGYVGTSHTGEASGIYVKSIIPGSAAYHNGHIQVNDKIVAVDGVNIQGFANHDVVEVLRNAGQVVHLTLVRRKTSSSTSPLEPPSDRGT

IL16_4, Q14005 = biological target: IL16_4, Q14005
Sequence of IL16_4, Q14005 (Q14005 1229-1329): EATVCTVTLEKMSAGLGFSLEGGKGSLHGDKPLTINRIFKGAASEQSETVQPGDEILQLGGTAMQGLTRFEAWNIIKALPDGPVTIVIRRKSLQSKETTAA

| pKd (PDZD7_3, Q9H5P4) | pKd (GRID2IP_1, A4D2P6) | pKd (TJP2_1, Q9UDY2) | pKd (RHPN1, Q8TCX5) | pKd (NHERF4_2, Q86UT5) | pKd (DLG3_3, Q92796) | pKd (MAGI2_3, Q86UL8) | pKd (GRID2IP_2, A4D2P6) | pKd (CASK, O14936) | pKd (MAGI2_4, Q86UL8) | pKd (MAST2, Q6P0Q8) | pKd (LNX1_3, Q8TBB1) | pKd (Inadl_9, Q8NI35) | pKd (LNX2_2, Q8N448) | pKd (RADIL, Q96JH8) | pKd (SNTG2, Q9NY99) | pKd (TJP1_2, Q07157) | pKd (PDZRN4_1, Q6ZMN7) | pKd (APBA1_1, Q02410) | pKd (FRMPD3, Q5JV73) | Binder | further results |
| --- | --- | --- | --- | --- | --- | --- | --- | --- | --- | --- | --- | --- | --- | --- | --- | --- | --- | --- | --- | --- | --- |
| 4.57 | below the threshold | below the threshold | 3.5 | below the threshold | 4.32 | below the threshold | below the threshold | below the threshold | below the threshold | 4.42 | below the threshold | below the threshold | below the threshold | below the threshold | 3.63 | below the threshold | 4.18 | below the threshold | below the threshold | QRPYRRESEI [KCNJ12, Q14500] | pKd (GORASP2, Q9H8Y8): 3.74; pKd (HTRA2, O43464): below the threshold; pKd (GOPC, Q9HD26): below the threshold; pKd (MAST1, Q9Y2H9): below the threshold; pKd (LNX1_2, Q8TBB1): below the threshold; pKd (PDZRN3_1, Q9UPQ7): 4.68; pKd (LIMK2, P53671): below the threshold; pKd (Inadl_3, Q8NI35): below the threshold; pKd (IL16_4, Q14005): below the threshold |
| 4.11 | below the threshold | below the threshold | 4.48 | below the threshold | 4.23 | 3.9 | below the threshold | below the threshold | 4.02 | 5.35 | below the threshold | below the threshold | 4.13 | below the threshold | 4.55 | below the threshold | 3.48 | below the threshold | below the threshold | GRLLGLETNV [ARHGEF26, Q96DR7] | pKd (GORASP2, Q9H8Y8): 3.97; pKd (HTRA2, O43464): below the threshold; pKd (GOPC, Q9HD26): below the threshold; pKd (MAST1, Q9Y2H9): 4.33; pKd (LNX1_2, Q8TBB1): below the threshold; pKd (PDZRN3_1, Q9UPQ7): 3.59; pKd (LIMK2, P53671): below the threshold; pKd (Inadl_3, Q8NI35): 3.58; pKd (IL16_4, Q14005): below the threshold |
